Measurements published in doi:10.1101/2025.10.22.684016.

Biological target: mCherry-TurboID-CD9
Assay: proximity labelling + proximity ligation

## Ncam1 (from UniProt P13595 20-1115) (natural protein)
  PLA puncta (Streptavidin–Ncam1), APP-TB mice: 1790 puncta
  PLA puncta (Streptavidin–Ncam1), WT-TB mice: 1260 puncta

## Gabrb3 (from UniProt P63080 26-473) (natural protein)
  PLA puncta (Streptavidin–Gabrb3), APP-TB mice: 1530 puncta
  PLA puncta (Streptavidin–Gabrb3), WT-TB mice: 1500 puncta

B1: Gad1 (enzyme)
chain: MASSTPSPATSSNAGADPNTTNLRPTTYDTWCGVAHGCTRKLGLKICGFLQRTNSLEEKSRLVSAFRERQSSKNLLSCENSDQGARFRRTETDFSNLFAQDLLPAKNGEEQTAQFLLEVVDILLNYVRKTFDRSTKVLDFHHPHQLLEGMEGFNLELSDHPESLEQILVDCRDTLKYGVRTGHPRFFNQLSTGLDIIGLAGEWLTSTANTNMFTYEIAPVFVLMEQITLKKMREIVGWSNKDGDGIFSPGGAISNMYSIMAARYKYFPEVKTKGMAAVPKLVLFTSEHSHYSIKKAGAALGFGTDNVILIKCNERGKIIPADLEAKILDAKQKGYVPLYVNATAGTTVYGAFDPIQEIADICEKYNLWLHVDAAWGGGLLMSRKHRHKLSGIERANSVTWNPHKMMGVLLQCSAILVKEKGILQGCNQMCAGYLFQPDKQYDVSYDTGDKAIQCGRHVDIFKFWLMWKAKGTVGFENQINKCLELADYLYAKIKNREEFEMVFDGEPEHTNVCFWYIPQSLRGVPDSPERREKLHRVAPKIKALMMESGTTMVGYQPQGDKANFFRMVISNPAATQSDIDFLIEEIERLGQDL
  PLA puncta (Streptavidin–Gad1), APP-TB mice: 2120 puncta
